Experimental data as given in the RNAGym collection of RNA variant scans (doi:10.1093/molbev/msab373).

B1: Azoarcus group I ribozyme (parent)
chain: GUGCCUUGCGCCGGGAAACCACGCAAGGGAUGGUGUCAAAUUCGGCGAAACCUAAGCGCCCGCCCGGGCGUAUGGCAACGCCGAGCCAAGCUUCGGCGCCUGCGCCGAUGAAGGUGUAGAGACUAGACGGCACCCACCUAAGGCAAACGCUAUGGUGAAGGCAUAGUCCAGGGAGUGGCGAAAGUCACACAAACCGG

Variants of: B1
Assay: reverse-splicing fitness (ratio to wild type); higher = more active; in vitro selection; Mg2+ level not given
Summary of the method: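 An in vitro group I ribozyme library with randomized positions was T7-transcribed and gel-purified. In triplicate, 10 pmol RNA in EPPS pH 7.5 was reacted with 50 pmoles of a 30-nt RNA substrate for 1 h at 37 °C across several added MgCl2 levels (1–48 mM), then stopped with EDTA. Products were reverse transcribed from a substrate-complementary primer, PCR-amplified and sequenced (HiSeq 4000). Fitness is a variant's read proportion after selection over that before, normalised to wild type.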

Variant	reverse-splicing fitness
A111U A120U A145C C150U U176G	0.0208
A111U A120U A145C C150U U176C	0.0423
A111U A120U A145C C150U U176A	0.0565
A111U A120U A145G C150U C169U U176A	0.0115
A111U A120U A145G C150U C169U U176G	0.00291
A111U A120U A145G C150U C169U U176C	0.0144
A111U A145C C150U U176G	0.189
A111U A145C C150U U176C	0.436
A111U A145C C150U U176A	0.399
A111U A120U C150U U176G	0.027
A111U A120U C150U U176A	0.125
A111U A120U C150U U176C	0.171
A111U A120U C150G C169G U176A	0.00371
A111U A120U C150G C169G U176C	0.00285
A111U A120U C150G C169G U176G	0.00237
A111U A120U A145G C150G C169U U176G	0.00383
A111U A120U A145G C150G C169U U176C	0.00615
A111U A120U A145G C150G C169U U176A	0.00644
A111U A145G C150A C169G U176C	0.0292
A111U A145G C150A C169G U176G	0.00603
A111U A145G C150A C169G U176A	0.0163
A111U A120U C150G C169A U176A	0.00451
A111U A120U C150G C169A U176C	0.0037
A111U A120U C150G C169A U176G	0.00232

Variant	reverse-splicing fitness
A111U A120U A145U C150G U176G	0.0043
A111U A120U A145U C150G U176A	0.0111
A111U A120U A145U C150G U176C	0.0208
A111U A145C C169G U176A	0.0286
A111U A145C C169G U176C	0.0232
A111U A145C C169G U176G	0.00585
A111U A120U A145G C150U C169G U176C	0.00802
A111U A120U A145G C150U C169G U176G	0.0024
A111U A120U A145G C150U C169G U176A	0.00769
A111U A145G C150G U176C	0.171
A111U A145G C150G U176A	0.0997
A111U A145G C150G U176G	0.0223
A111U A120U C150U C169A	0.00484
A111U A120U C150U C169G	0.0274
A111U A120U C150U C169U	0.0369
A111U A120U A145U C150U C169G	0.0304
A111U A120U A145U C150U C169U	0.0433
A111U A120U A145U C150U C169A	0.00404
A111U A120U A145G U176A	0.27
A111U A120U A145G U176C	0.266
A111U A120U A145G U176G	0.0546
A111U A120U C150G C169A	0.00749
A111U A120U C150G C169U	0.00855
A111U A120U C150G C169G	0.00802

Variant	reverse-splicing fitness
A111U A120U A145G C150G U176G	0.00387
A111U A120U A145G C150G U176A	0.01
A111U A120U A145G C150G U176C	0.0225
A111U A120U A145G C150U C169A	0.00694
A111U A120U A145G C150U C169U	0.0617
A111U A120U A145G C150U C169G	0.0377
A111U A145C C150U C169G U176A	0.0212
A111U A145C C150U C169G U176G	0.00741
A111U A145C C150U C169G U176C	0.0135
A111U A145G C169A	0.0306
A111U A145G C169U	0.111
A111U A145G C169G	0.0699
A111U A120U C150U C169A U176C	0.00279
A111U A120U C150U C169A U176A	0.00464
A111U A120U C150U C169A U176G	0.00214
A111U A120U A145C U176G	0.0539
A111U A120U A145C U176C	0.168
A111U A120U A145C U176A	0.194
A111U A120U C150A C169A U176A	0.00475
A111U A120U C150A C169A U176G	0.00251
A111U A120U C150A C169A U176C	0.00348
A111U A120U A145G C150U	0.486
A111U A120U A145G C150A	0.0883
A111U A120U A145G C150G	0.0631

Variant	reverse-splicing fitness
A111U A145G C169A U176G	0.00593
A111U A145G C169A U176C	0.0305
A111U A145G C169A U176A	0.0211
A111U A120U A145U C150U U176A	0.16
A111U A120U A145U C150U U176C	0.174
A111U A120U A145U C150U U176G	0.0292
A111U A145C C150A C169G U176C	0.0127
A111U A145C C150A C169G U176G	0.00622
A111U A145C C150A C169G U176A	0.0227
A111U A120U C150A C169U	0.00846
A111U A120U C150A C169A	0.00436
A111U A120U C150A C169G	0.00631
A111U A145G C150U U176A	0.591
A111U A145G C150U U176G	0.22
A111U A145G C150U U176C	0.692
A111U A145C C150A U176G	0.0517
A111U A145C C150A U176A	0.103
A111U A145C C150A U176C	0.127
A111U A120U C169U U176A	0.0126
A111U A120U C169U U176C	0.0202
A111U A120U C169U U176G	0.00332
A111U A120U A145U C169U U176A	0.0087
A111U A120U A145U C169U U176C	0.0174
A111U A120U A145U C169U U176G	0.00258

Variant	reverse-splicing fitness
A111U A145G C150A	0.516
A111U A145G C150U	0.915
A111U A145G C150G	0.359
A111U A145C C150G C169U	0.0175
A111U A145C C150G C169G	0.0108
A111U A145C C150G C169A	0.00988
A111U A120U U176A	0.239
A111U A120U U176C	0.296
A111U A120U U176G	0.0683
A111U A120U A145U C150G C169A	0.00326
A111U A120U A145U C150G C169G	0.00597
A111U A120U A145U C150G C169U	0.00751
A111U A120U A145U C150G C169A U176G	0.00255
A111U A120U A145U C150G C169A U176C	0.00274
A111U A120U A145U C150G C169A U176A	0.00319
A111U A120U C150G	0.045
A111U A120U C150U	0.374
A111U A120U C150A	0.0595
A111U A145C C150U C169A U176G	0.00703
A111U A145C C150U C169A U176A	0.0117
A111U A145C C150U C169A U176C	0.00769
A111U A120U A145U C150A U176G	0.00946
A111U A120U A145U C150A U176A	0.0229
A111U A120U A145U C150A U176C	0.0269

Variant	reverse-splicing fitness
A111U A120U C169G U176A	0.00625
A111U A120U C169G U176C	0.00937
A111U A120U C169G U176G	0.00197
A111U A120U A145U U176C	0.281
A111U A120U A145U U176A	0.241
A111U A120U A145U U176G	0.0645
A111U A145G C150G C169U	0.0181
A111U A145G C150G C169A	0.0104
A111U A145G C150G C169G	0.011
A111U A120U A145U C150A C169U U176A	0.00294
A111U A120U A145U C150A C169U U176G	0.00245
A111U A120U A145U C150A C169U U176C	0.00324
A111U A120U A145G C150A C169G U176A	0.00807
A111U A120U A145G C150A C169G U176G	0.00267
A111U A120U A145G C150A C169G U176C	0.00547
A111U A120U A145U C150A C169A	0.00249
A111U A120U A145U C150A C169G	0.0047
A111U A120U A145U C150A C169U	0.00692
A111U A120U A145U	0.607
A111U A120U A145G	0.593
A111U A120U A145G C150G C169A U176A	0.0087
A111U A120U A145G C150G C169A U176G	0.00452
A111U A120U A145G C150G C169A U176C	0.00774
A111U A145G C150U C169A	0.025

Variant	reverse-splicing fitness
A111U A145G C150U C169G	0.0498
A111U A145G C150U C169U	0.0923
A111U A145C C169A U176C	0.00885
A111U A145C C169A U176A	0.0105
A111U A145C C169A U176G	0.00602
A111U A120U A145U C150U C169U U176A	0.00718
A111U A120U A145U C150U C169U U176C	0.00988
A111U A120U A145U C150U C169U U176G	0.00253
A111U A120U A145G C169A U176G	0.00247
A111U A120U A145G C169A U176C	0.00376
A111U A120U A145G C169A U176A	0.00212
A111U A120U A145G C169G U176G	0.00167
A111U A120U A145G C169G U176C	0.00918
A111U A120U A145G C169G U176A	0.00549
A111U A120U A145G C169A	0.00419
A111U A120U A145G C169U	0.076
A111U A120U A145G C169G	0.0528
A111U A120U A145G C150U U176C	0.206
A111U A120U A145G C150U U176G	0.0253
A111U A120U A145G C150U U176A	0.18
A111U A145G C169U U176C	0.0327
A111U A145G C169U U176A	0.0265
A111U A145G C169U U176G	0.00581
